Data as given in patent US20170334973A1 (published 2017).
Substitutions are numbered along the chain they refer to.

T1: EBOV soluble GP (sGP) (Ebola virus (EBOV), UniProt P60170 33-324)
T1 chain: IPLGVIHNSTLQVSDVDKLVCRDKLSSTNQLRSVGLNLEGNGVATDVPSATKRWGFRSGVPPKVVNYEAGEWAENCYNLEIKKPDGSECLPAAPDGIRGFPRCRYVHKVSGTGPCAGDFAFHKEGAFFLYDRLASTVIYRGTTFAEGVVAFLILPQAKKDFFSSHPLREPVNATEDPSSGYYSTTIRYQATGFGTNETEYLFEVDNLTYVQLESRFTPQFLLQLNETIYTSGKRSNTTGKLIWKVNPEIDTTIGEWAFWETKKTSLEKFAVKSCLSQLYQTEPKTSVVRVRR

T2: EBOV GPcl (Ebola virus (EBOV), UniProt Q05320 33-200; Q05320 502-632)
T2 chain 1: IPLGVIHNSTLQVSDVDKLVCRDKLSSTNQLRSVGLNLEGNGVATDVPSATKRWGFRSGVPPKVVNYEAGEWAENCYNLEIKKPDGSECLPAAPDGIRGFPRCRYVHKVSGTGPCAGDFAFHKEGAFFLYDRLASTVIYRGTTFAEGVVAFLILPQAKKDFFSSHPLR
T2 chain 2: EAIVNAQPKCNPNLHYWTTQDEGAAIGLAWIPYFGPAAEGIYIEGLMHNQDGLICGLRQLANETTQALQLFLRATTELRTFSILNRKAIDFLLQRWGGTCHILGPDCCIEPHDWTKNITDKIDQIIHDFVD

B1: FVM04 (antibody, V domains shown)
VH: EVQLVQSGGGLVQPGGSMRLSCEASGLSLSDYFMHWVRQAQGKGLEWIGLIQTKAFTYKTEYPAAVKGRFTISRDDSKNTLYLQMSSLKPEDTALYYCIAVTPDFYYWGQGVLVTVSS
VL: DVVMTQSPSFLSASVGDRVTITCRASQDITINLNWFQHKPGKAPKRLIYVASRLERGVPSRFSGSGSGTEFTLTISSLQPEDFATYYCQQYNNYPLTFGPGTKLDIKR
B2: FVM01P (antibody, V domains shown)
VH: QVQLQESGPGLVKPSETLSLTCTVSGASISNYRWNWIRQPPGKGLEWIGEINGYSGSTNYNPSLKSRVTISKDASKNQFSLKLTSVTAADTAVYYCPIIGGFTLEWFDVWGPGVLVTVSS
VL: DVVLTQSPSSLSASVGDRVTITCRASQGIRNYLNWYQQKPRKAPKLLIYAASSLQSGVPSRFSGSGSGTEFTLTISSLQAEDFATYYCLQGYRTPFTFGPGTKLDIKR
B3: FVM13 (antibody, V domains shown)
VH: EVQLVQSGAEVKRPGESLKISCKTSGYTFTSSWISWVRQMPGKGLEWLGSIYPGDSDTRYNPSFQGHVTISADTSIITTHLQWSSLKASDTATYYCVKGSETWGQGVLVTVSS
VL: KPMLTQPTSLSASPGASASLTCTFSGGINVAGYNILWYQQKAGSPPRYLLRYKSDSTKDQGSGVPSRFSGSKDASANTGILRISGLQSEDEADYYCAIGHSSGWIFGGGTRLTVL
B4: FVM09 (antibody, V domains shown)
VH: EVQLVQSGAEVKRPGESLTISCKTSGYSFTDSWVAWVRQMPGKGLEWLGSIYPGDSETKYNPSFQGHVTISADKSVTTTYLKWSSLKASDTATYYCVKGSETWGQGVLVTVSS
VL: B3 VL with K1Q, P2L, M3V, T8A
B5: FVM20 (antibody, V domains shown)
VH: B4 VH with Q6E, D31G, V34I, A35S
VL: B3 VL with K1N, P2F, P7S, T8A, N34H, L36F, K41N, A42P, T57E
B6: FVM02P (antibody, V domains shown)
VH: EVQLVESGGGLVQPGGSLRLSCAASGFTGFTFSDYAFYWVRQAPGKGLEWVGFIRGKAYGGTADYAASVKGRFTISRDNSKNTAYLQMSSLKTEDSAVYYCTSQGVTVATPYHWGQGVLVTVSS
VL: DIVLTQSPLSLPVTPGEPASISCRSSQSLLHSGGKTYLYWYLQKPGQSPQLLIHEVSNRASGVPDRFSGSGSGTDFTLKISRVEAEDVGVYYCMQGIQLPLTFGGGTKVEIKR

Target: T1, EBOV soluble GP (sGP)
Experiment: ELISA

Row | Binder | EC50
1 | B1 | 7 ng/mL
2 | B2 | 5 ng/mL
3 | B3 | 5 ng/mL
4 | B4 | 17 ng/mL
5 | B5 | 23 ng/mL

Target: T2, EBOV GPcl
Experiment: ELISA

Row | Binder | EC50
6 | B1 | 8 ng/mL
7 | B6 | 5 ng/mL
8 | B2 | 5 ng/mL
9 | B3 | > 10000 ng/mL
10 | B5 | > 10000 ng/mL

The binders below were run against EBOV GP[change] (Ebola virus (EBOV), UniProt Q05320) (assay: ELISA).

Row | Binder | EC50
11 | B1 | 12 ng/mL
12 | B6 | 10 ng/mL
13 | B2 | 9 ng/mL
14 | B3 | 3 ng/mL
15 | B4 | 5 ng/mL
16 | B5 | 7 ng/mL
